Experimental data: patent US7919462B2, “Inhibitors of human plasmin derived from the Kunitz domains” (Dyax Corp., priority 1994, dated 2011)
Several values for one entry are separate records, joined by “and”; a condition that tells them apart may be missing. Equal values may be shown once. Read-outs that look alike come from different tables or passages of the source. Each block holds one substance with its values, some of them ahead of it. Bridges are numbered along the chain shown (N, C = ends). Where no end group is shown, it is not given here.

Key:
[1] = target: T1, plasmin (Homo sapiens, UniProt P00747); conditions: cited from earlier work; for Kd: Table 4, plasmin, read-out: Affinity KD
T1 sequence (P00747 581-810 limits assumed): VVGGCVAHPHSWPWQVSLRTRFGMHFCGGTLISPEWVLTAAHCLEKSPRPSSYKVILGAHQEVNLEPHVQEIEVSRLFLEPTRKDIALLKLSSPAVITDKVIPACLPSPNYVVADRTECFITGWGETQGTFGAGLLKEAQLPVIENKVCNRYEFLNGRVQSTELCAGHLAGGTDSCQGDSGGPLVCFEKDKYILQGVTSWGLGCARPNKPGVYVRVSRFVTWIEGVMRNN
T1 sequence (P00747 97-580 partner limits assumed): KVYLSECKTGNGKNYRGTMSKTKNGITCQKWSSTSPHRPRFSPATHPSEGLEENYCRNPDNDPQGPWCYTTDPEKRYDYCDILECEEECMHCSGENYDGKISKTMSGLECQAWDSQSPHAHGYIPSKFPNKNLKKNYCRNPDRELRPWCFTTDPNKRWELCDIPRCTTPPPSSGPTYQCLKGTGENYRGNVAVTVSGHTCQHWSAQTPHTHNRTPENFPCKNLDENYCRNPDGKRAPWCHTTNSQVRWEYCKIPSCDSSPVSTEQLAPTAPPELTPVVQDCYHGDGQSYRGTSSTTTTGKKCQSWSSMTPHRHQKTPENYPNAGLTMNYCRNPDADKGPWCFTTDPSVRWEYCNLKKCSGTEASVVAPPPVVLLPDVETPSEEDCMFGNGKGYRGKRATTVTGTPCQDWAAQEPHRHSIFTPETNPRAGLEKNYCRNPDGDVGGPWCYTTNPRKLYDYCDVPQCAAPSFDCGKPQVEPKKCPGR

[2] = target: T1, plasmin; experiment: Inhibition of plasmin hydrolysis of succinyl-Ala-Phe-Lys-(F3Ac)AMC, tight-binding fit (Ki used as KD); type: biochemical
Excerpt: A second appropriate method of measuring KD is to measure the inhibitory activity against the enzyme. […] Here, we use the measured Ki as a direct measure of KD.
Inhibition of hydrolysis of succinyl-Ala-Phe-Lys-(F3Ac)AMC (a methyl coumarin) (Sigma Chemical, St. Louis, Mo.) by plasmin at 2.5×10^−8 M with varying amount of inhibitor were fit to the standard form for a tight-binding […] by least-squares.

[3] = target: T1, plasmin; experiment: Binding of display phage (KuDom on M13 gIIIp) to plasmin beads; conditions: in words

Substance: Human APP-I: human Kunitz domain APP-I, SEQ ID NO. 39 (VREVCSEQAETGPCRAMISRWYFDVTEGKCAPFFYGGCGGNRNNFDTEEYCMAVCGSA; listed as Homo sapiens)
- Ki ([1]; AUER88, SCHN86, DENN94a): 225 nM
- Kd ([1]; KIDO88): 0.075 nM
- Kd ([1]; literature values (APP-I: DENN94a)): 225 nM

Substance: MHSFCAFKADDGPCKARFERFFFNIFTRQCEQFTYGGCGGNQNRFESLEECKKMCTRD (disulfide 5-55, 14-38, 30-51) [NS4]
- Ki ([2]; Ki for plasmin, 150 mM salt): ~2 nM

Substance: MHSFCAFKADGGPCKGKFPRFFFNIFTRQCEEFIYGGCEGNQNRFESLEECKKMCTRD (disulfide 5-55, 14-38, 30-51) [SPI22]
- Kd ([2]; Affinity KD): > 2 nM

Substance: MHSFCAFKADSGPCRARFDRWFFNIFTRQCTRFPYGGCGGNQNRFESLEECKKMCTRD (disulfide 5-55, 14-38, 30-51) [SPI54]
- Ki ([2]; Ki for plasmin, 150 mM salt): > 4 nM

Substance: MHSFCAFKAETGPCRARFDRWFFNIFTRQCEEFIYGGCEGNQNRFESLEECKKMCTRD (disulfide 5-55, 14-38, 30-51) [SPI11]
- Kd ([2]; Affinity KD): 0.088 nM
- Ki ([2]; Ki for plasmin): 0.088 nM and ~0.088 nM
- Kd ([2]; affinity for plasmin): < 0.1 nM

Substance: MHSFCAFKAETGPCRGKFDRWFFNIFTRQCESFHYGGCKGNQNRFESLEECKKMCTRD (disulfide 5-55, 14-38, 30-51) [SPI43]
- Ki ([2]; Ki for plasmin): > 4 nM

- Ki ([2]; 150 mM salt, read-out: Ki for plasmin): ~2 nM
- Kd ([2]; Table 4, plasmin, read-out: Affinity KD): 2 nM
- potency class for plasmin below the rank order of Table 8 ([2]; class words wrapped over r53-r54: Highly Superior / very potent / potent, order SPI11<BPTI<SPI23=SPI51<SPI47<QS4<SPI22<SPI54<SPI43): potent
Substance: QS4: LACI-K1 derivative that binds human plasmin, SEQ ID NO. 4 (MHSFCAFKADDGPCKARFERFFFNIFTRQCEQFYYGGCDGNQNRFESLEECKKMCTRD; Synthetically generated peptide)

- binding of clonally pure phage compared to BPTI display phage [3]: superior to BPTI phage
Substance: SPI08: LACI-K1 derivative selected for plasmin binding, SEQ ID NO. 42 (MHSFCAFKADGGPCRARFERFFFNIFTRQCEEFIYGGCEGNQNRFESLEECKKMCTRD; Synthetically generated peptide)

- binding of clonally pure phage compared to BPTI display phage [3]: superior to BPTI phage
Substance: SPI15: LACI-K1 derivative selected for plasmin binding, SEQ ID NO. 41 (Table 6: 90) (MHSFCAFKAESGPCRARFDRWFFNIFTRQCEEFIYGGCEGNQNRFESLEECKKMCTRD; Synthetically generated peptide)
